Source: FireProtDB (doi:10.1016/s0167-4838(99)00071-0)
Several values for one entry are separate records, joined by “and”; a condition that tells them apart may be missing. Equal entries are not always repeated.

Details: Saccharomyces cerevisiae (strain ATCC 204508 / S288c), Thermal, DSC, reversible: yes
[1] = pH 4.7, 51.4 °C, sodium acetate 50 mM, structure 1YCC
[2] = pH 4.7, sodium acetate 50 mM, structure 1YCC
[3] = pH 6, 57.1 °C, sodium phosphate 100 mM, structure 1YCC
[4] = pH 6, sodium phosphate 10 mM, structure 1YCC
[5] = pH 6, sodium phosphate 100 mM, structure 1YCC

Chain of Cytochrome c isoform 1 T75E|C108T, P00044 T75E C108T (P00044 whole entry T75E/C108T, canonical isoform): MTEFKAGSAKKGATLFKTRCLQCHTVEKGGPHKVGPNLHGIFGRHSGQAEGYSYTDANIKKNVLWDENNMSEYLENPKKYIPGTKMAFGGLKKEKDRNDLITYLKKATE
Chain of Cytochrome c isoform 1 wild type, P00044 (P00044 whole entry, canonical isoform): as the sequence (P00044 whole entry T75E/C108T, canonical isoform) above, with E75T, T108C counted along it
Chain of Cytochrome c isoform 1 T102A|C108T, P00044 T102A C108T (P00044 whole entry T102A/C108T, canonical isoform): as the sequence (P00044 whole entry T75E/C108T, canonical isoform) above, with E75T, T102A counted along it
Chain of Cytochrome c isoform 1 T75E|T102A|C108T, P00044 T75E T102A C108T (P00044 whole entry T75E/T102A/C108T, canonical isoform): as the sequence (P00044 whole entry T75E/C108T, canonical isoform) above, with T102A counted along it
Chain of Cytochrome c isoform 1 C108T, P00044 (P00044 whole entry C108T, canonical isoform): as the sequence (P00044 whole entry T75E/C108T, canonical isoform) above, with E75T counted along it

Cytochrome c isoform 1 C108T, P00044
unfolding enthalpy (calorimetric) [1]: 65 kcal/mol and 68 kcal/mol | heat capacity change of unfolding [2]: 1.7 kcal/mol/K | unfolding enthalpy (calorimetric) [2]: 69 kcal/mol and 116 kcal/mol | unfolding enthalpy (van 't Hoff) [2]: 82.8 kcal/mol and 151 kcal/mol | unfolding enthalpy (calorimetric) [3]: 81 kcal/mol and 75 kcal/mol | heat capacity change of unfolding [4]: 1.7 kcal/mol/K | unfolding enthalpy (calorimetric) [4]: 86 kcal/mol and 122 kcal/mol | unfolding enthalpy (van 't Hoff) [4]: 95 kcal/mol and 146 kcal/mol

Cytochrome c isoform 1 T75E|C108T, P00044 T75E C108T
unfolding enthalpy (calorimetric) [1]: 80 kcal/mol | heat capacity change of unfolding [2]: 1.5 kcal/mol/K | unfolding enthalpy (calorimetric) [2]: 89 kcal/mol and 125 kcal/mol | unfolding enthalpy (van 't Hoff) [2]: 97.9 kcal/mol and 138 kcal/mol | unfolding enthalpy (calorimetric) [3]: 90 kcal/mol and 91 kcal/mol | Tm [4]: 62.6 °C | heat capacity change of unfolding [4]: 1.5 kcal/mol/K | unfolding enthalpy (calorimetric) [4]: 98 kcal/mol | unfolding enthalpy (van 't Hoff) [4]: 108 kcal/mol | Tm [5]: 86.3 °C | heat capacity change of unfolding [5]: 1.5 kcal/mol/K | unfolding enthalpy (calorimetric) [5]: 135 kcal/mol | unfolding enthalpy (van 't Hoff) [5]: 149 kcal/mol

Cytochrome c isoform 1 wild type, P00044
unfolding enthalpy (calorimetric) (pH 4.7, 51.4 °C, sodium acetate 50 mM): 42 kcal/mol and 49 kcal/mol | heat capacity change of unfolding (pH 4.7, sodium acetate 50 mM): 1.4 kcal/mol/K | unfolding enthalpy (calorimetric) (pH 4.7, sodium acetate 50 mM): 40 kcal/mol | unfolding enthalpy (van 't Hoff) (pH 4.7, sodium acetate 50 mM): 52 kcal/mol | unfolding enthalpy (calorimetric) (pH 6, 57.1 °C, sodium phosphate 100 mM): 78 kcal/mol and 62 kcal/mol | Tm (pH 6, sodium phosphate 10 mM): 81.4 °C | heat capacity change of unfolding (pH 6, sodium phosphate 100 mM): 1.4 kcal/mol/K | unfolding enthalpy (calorimetric) (pH 6, sodium phosphate 100 mM): 78 kcal/mol and 98 kcal/mol | unfolding enthalpy (van 't Hoff) (pH 6, sodium phosphate 100 mM): 101 kcal/mol and 127 kcal/mol

Cytochrome c isoform 1 T75E|T102A|C108T, P00044 T75E T102A C108T
unfolding enthalpy (calorimetric) [1]: 75 kcal/mol and 77 kcal/mol | heat capacity change of unfolding [2]: 1.7 kcal/mol/K | unfolding enthalpy (calorimetric) [2]: 85 kcal/mol and 130 kcal/mol | unfolding enthalpy (van 't Hoff) [2]: 102 kcal/mol and 169 kcal/mol | unfolding enthalpy (calorimetric) [3]: 83 kcal/mol and 92 kcal/mol | heat capacity change of unfolding [5]: 1.7 kcal/mol/K | unfolding enthalpy (calorimetric) [5]: 92 kcal/mol and 143 kcal/mol | unfolding enthalpy (van 't Hoff) [5]: 120 kcal/mol and 157 kcal/mol

Cytochrome c isoform 1 T102A|C108T, P00044 T102A C108T
unfolding enthalpy (calorimetric) [1]: 78 kcal/mol and 67 kcal/mol | heat capacity change of unfolding [2]: 1.8 kcal/mol/K | unfolding enthalpy (calorimetric) [2]: 84 kcal/mol and 121 kcal/mol | unfolding enthalpy (van 't Hoff) [2]: 118 kcal/mol and 133 kcal/mol | unfolding enthalpy (calorimetric) [3]: 84 kcal/mol | heat capacity change of unfolding [5]: 1.8 kcal/mol/K | unfolding enthalpy (calorimetric) [5]: 91 kcal/mol and 144 kcal/mol | unfolding enthalpy (van 't Hoff) [5]: 109 kcal/mol and 144 kcal/mol
